Measurements published in article PMC10031729, “Interaction of methionine sulfoxide reductase B5 with SlMYC2 stimulates the transcription of MeJA-mediated autophagy-related genes in tomato fruit”.

What was measured:
MBP-SlMYC2 [1] = biological target: T1, MBP-SlMYC2 (Solanum lycopersicum, UniProt A0A3Q7HRZ6 1-689); assay: competition; unlabeled mutant competitor vs SlATG13b probe; Chemiluminescent EMSA kit (Beyotime); buffer, salt, pH and temperature not stated; details: protein: recombinant; tags: N-terminal MBP; chain copies: 2
T1 sequence (A0A3Q7HRZ6 whole entry): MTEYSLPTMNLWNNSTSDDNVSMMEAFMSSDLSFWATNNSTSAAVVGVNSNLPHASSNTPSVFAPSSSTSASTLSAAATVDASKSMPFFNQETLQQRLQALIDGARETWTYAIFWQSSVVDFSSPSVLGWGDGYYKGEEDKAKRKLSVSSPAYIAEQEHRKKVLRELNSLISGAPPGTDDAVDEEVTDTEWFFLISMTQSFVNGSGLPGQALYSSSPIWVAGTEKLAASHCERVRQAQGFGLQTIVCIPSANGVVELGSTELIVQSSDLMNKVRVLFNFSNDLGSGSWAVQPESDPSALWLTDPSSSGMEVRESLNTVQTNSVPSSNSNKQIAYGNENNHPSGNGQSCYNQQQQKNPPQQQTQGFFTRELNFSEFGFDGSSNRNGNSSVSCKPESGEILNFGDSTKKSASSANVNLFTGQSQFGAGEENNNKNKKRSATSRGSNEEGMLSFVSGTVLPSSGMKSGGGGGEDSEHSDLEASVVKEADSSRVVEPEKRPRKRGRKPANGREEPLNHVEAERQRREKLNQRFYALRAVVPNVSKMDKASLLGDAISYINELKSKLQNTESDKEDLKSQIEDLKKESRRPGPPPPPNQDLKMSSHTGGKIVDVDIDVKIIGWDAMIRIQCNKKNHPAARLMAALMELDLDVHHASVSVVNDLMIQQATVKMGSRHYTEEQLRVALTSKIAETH

MBP-SlMYC2 [2] = biological target: T1, MBP-SlMYC2; assay: competition; unlabeled mutant competitor vs SlATG18h probe; Chemiluminescent EMSA kit (Beyotime); buffer, salt, pH and temperature not stated; details: protein: recombinant; tags: N-terminal MBP; chain copies: 2
MBP-SlMYC2 [3] = biological target: T1, MBP-SlMYC2; assay: EMSA; Chemiluminescent EMSA kit (Beyotime); buffer, salt, pH and temperature not stated; details: protein: recombinant; tags: N-terminal MBP; chain copies: 2; label: biotin
MBP-SlMYC2 [4] = biological target: T1, MBP-SlMYC2; assay: competition; unlabeled mutant competitor vs SlATG18a probe; Chemiluminescent EMSA kit (Beyotime); buffer, salt, pH and temperature not stated; details: protein: recombinant; tags: N-terminal MBP; chain copies: 2
MBP-SlMYC2 [5] = biological target: T1, MBP-SlMYC2; assay: competition; unlabeled mutant competitor vs SlATG13a probe; Chemiluminescent EMSA kit (Beyotime); buffer, salt, pH and temperature not stated; details: protein: recombinant; tags: N-terminal MBP; chain copies: 2

Row | Binder | binding result (MBP-SlMYC2 [3]) | further results
1 | SlATG13b mutant probe (G/E-box to TTTTTTTT) (dsDNA) DNA 1: TTTCTTTGTTTCTTTTTTTTTTTTTACTTC DNA 2: GAAGTAAAAAAAAAAAAAGAAACAAAGAAA |  | binding result (MBP-SlMYC2 [1]): no binding
2 | SlATG18h mutant probe (G/E-box to TTTTTTTT) (dsDNA) DNA 1: ATTCCATATATTTTTTTTCTCCGTTTCATC DNA 2: GATGAAACGGAGAAAAAAAATATATGGAAT |  | binding result (MBP-SlMYC2 [2]): no binding
3 | SlATG13b promoter probe (dsDNA) DNA 1: TTTCTTTGTTTCACACGTTCTTTTTACTTC DNA 2: GAAGTAAAAAGAACGTGTGAAACAAAGAAA | binds | 
4 | SlATG18a mutant probe (G/E-box to TTTTTTTT) (dsDNA) DNA 1: GGATTGGATCTTTTTTTTTCATGTAGGATA DNA 2: TATCCTACATGAAAAAAAAAGATCCAATCC |  | binding result (MBP-SlMYC2 [4]): no binding
5 | SlATG18a promoter probe (dsDNA) DNA 1: GGATTGGATCTACACGTGGCATGTAGGATA DNA 2: TATCCTACATGCCACGTGTAGATCCAATCC | binds | 
6 | SlATG13a promoter probe (dsDNA) DNA 1: GAGAACACTTGCTATGTCACGTGCTAAATT DNA 2: AATTTAGCACGTGACATAGCAAGTGTTCTC | binds | 
7 | SlATG13a mutant probe (G/E-box to TTTTTTTT) (dsDNA) DNA 1: GAGATTTTTTTTTATGTTTTTTTTTAAATT DNA 2: AATTTAAAAAAAAACATAAAAAAAAATCTC |  | binding result (MBP-SlMYC2 [5]): no binding
8 | SlATG18h promoter probe (dsDNA) DNA 1: ATTCCATATAACACATGTCTCCGTTTCATC DNA 2: GATGAAACGGAGACATGTGTTATATGGAAT | binds | 
